For one assay, the target named is Natalizumab. Kind of assay: peptide array variant scan, natalizumab binding in arbitrary ELISA units. Conditions: chain shown with the change;, read off a plot. (ELISA stands for enzyme-linked immunosorbent assay.)
The target in assay [1] is Ntz-07 synthetic peptide. The assay is described as follows: ELISA; Protocol-2: biotinylated peptide at 1 µg/ml in TBS on streptavidin-coated wells; natalizumab in 2.5% BSA/1X casein/TBST (or diluted human serum) 1 h at RT; detected with anti-IgG4-HRP; apparent affinity.
The target in assay [2] is Ntz-06 synthetic peptide. The description is as above.
The next assay concerns the target Ntz-02 synthetic peptide. The assay is described as follows: BLI; Octet Red96; 10 µg/ml peptide immobilised on a streptavidin sensor; natalizumab in solution 1-600 nM, three-fold dilutions; TBS; apparent affinity. Background: In BLI a coated tip is dipped into the sample, and binding shifts an interference pattern.
The next assay deals with Ntz-01 synthetic peptide. The description is as above.
The next assay concerns the target Ntz-04 synthetic peptide. Described as above.
Assay [3] deals with Ntz-07 synthetic peptide. Described as above.
A further assay deals with Ntz-05 synthetic peptide. The assay is described as above.
The target in assay [4] is Ntz-06 synthetic peptide. Described as above.
The target in another assay is Ntz-03 synthetic peptide. Described as above.

B1: Ntz-02 parent peptide on the Pepscan array S4K (peptide)
chain: ACPKNPSKFC
Turning to B1, in the assay with Natalizumab (parent: est. 80), the response was 1900 mAU.

B2: Ntz-01 parent peptide on the Pepscan array E6P (peptide)
chain: ACPMNPSKFC
Regarding B2, in the assay with Natalizumab (parent: est. 1100), the response was 1500 mAU.

B3: Ntz-03 parent peptide on the Pepscan array N7S (peptide)
chain: ACPKNPSKFC
For the molecule B3, the response with Natalizumab (parent: est. 60) is 2300 mAU.

B4: Ntz-01 parent peptide on the Pepscan array H4R (peptide)
chain: ACPRNESKFC
On to B4, for which the response in the assay with Natalizumab (parent: est. 1100) is 2400 mAU.

B5: Natalizumab (antibody, V domains shown)
VH: QVQLVQSGAEVKKPGASVKVSCKASGFNIKDTYIHWVRQAPGQRLEWMGRIDPANGYTKYDPKFQGRVTITADTSASTAYMELSSLRSEDTAVYYCAREGYYGNYGVYAMDYWGQGTLVTVSS
VL: DIQMTQSPSSLSASVGDRVTITCKTSQDINKYMAWYQQTPGKAPRLLIHYTSALQPGIPSRFSGSGSGRDYTFTISSLQPEDIATYYCLQYDNLWTFGQGTKVEIK
As to B5, the fold improvement of apparent affinity over Ntz-02 with Ntz-07 synthetic peptide [1] was determined as 6.2 fold. Also, the fold improvement of apparent affinity over Ntz-03 with Ntz-07 synthetic peptide [1] is 14 fold. Besides, the fold improvement of apparent affinity over Ntz-01 with Ntz-06 synthetic peptide [2] came out at 1.7 fold. Besides, the Kd with Ntz-02 synthetic peptide amounted to 32.1 nM; in the assay with Ntz-01 synthetic peptide, 29.1 nM; with Ntz-04 synthetic peptide, 6.03 nM; in the assay with Ntz-07 synthetic peptide [3], 3.24 nM; in the assay with Ntz-05 synthetic peptide it was 10.5 nM; in the assay with Ntz-06 synthetic peptide [4] it was 6.87 nM. Moreover, the Kd in the assay with Ntz-03 synthetic peptide stood at 31.4 nM.

B6: Ntz-02 parent peptide on the Pepscan array S4Q (peptide)
chain: ACPQNPSKFC
With B6, in the assay with Natalizumab (parent: est. 80), the response was 1000 mAU.
